# In a protein production outcome set (Wang et al. 2014):
# Test: label from the status in PepcDB records
# 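Also: failed if final PepcDB status was selected cloned or expressed and not failed if soluble or beyond.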
row,Sequence,protein production
1,MDLQGSVIKLQAAEAAGCKSPGRLLIIYLRPDAPRPQACASSVPAAMNRFKASKFRHMEARPSRREAWISDIRAGTTATCGNHIKSSCSLIAFNSDRPGVLGIISLEGHEENKRHVTYLGCHSDLVTDLDFSPFDDFLLASGSADRTIKLWRLSSTGEALPSVPGVVLGPEELPVDVLQFHPTADGVLVSTAGRTVKVWDVAKQQHLTELEAHKDLVQSAVWSRDGATVGTACKDKQLRIFDPRARAQASQSTQAHENNRDIRLAWTGIQEYLVSTGFNQMREREAKLWDTRVFSSALASITLDTSPGSLIPLLDPDSGLLVLAGKGENQLYCYEVTPQQPALSPVTQCILENALRGAALVPRQALAVMNCEVLQVLQLSDTAIIPISHRVPRKAVEFHEDLFPDTAGSVPASDAHTWWAGDNQQVQKVSLNPAHRPHPRFTSSLLPTLEPSPNMEQPAELPRADTELSEGFSSPSSLVSPSTPSSLGLSLSSTSGIGTSPSQRSLQSLLGPSSKFRHAEGTILHRDSHITNLKGLNLTTPGESDGFCANRLRVAVPLLSSGGQVAVLELQKPGRLPDTALPTLQNGAAVMDLVWDPFDPHRLAVAGEDARIRLWRVPPGGLKNVLTTPETVLTGHTEKIYSLRFHPLAADVLASSSYDLTIRIWDLQAGTEQLRLQGHQDQIFSLAWSPDGKQLATVCKDGRVRVYDPRSSPLPLQDGPGPEGGRGARIVWVCNGGCLLVSGFDSRSERQLQLYMADALAEGPSALLGLDVAPSTLLPSYDPDTGLVLLTGKGDTRVFLYEVIPEAPFFLECNSFTSPDPHKGFILLPKTECDIQDVEFARCLRLRQTSLEPVAFRLPRVRKEFFQDDVFPDTAVTWASALDAKAWFKGANGQPRLLSLQPPGMTPVSQAPREVPARRTPSSAQYLEEKSDQQKKEELLNAMVAKLGNREDPLPQDSFEGVDEDEWD,failed
2,MDLVAWETLSFPVVSAAFGASAFLIAVVGTRMTRAADRLADETGLGEAIFGAVLLGSTTSIAGITTSVTAAVDGLPSLAISNAIGGIAAQTVFLAVADMAYRPANLEHAAASVENLLQGALLSTLLAIPLLGMAGPRLDLFGIHPASVLLVAGYLYGIHLVAEARSTPYWVARQTDKTRQDTGAEGRESAALSTLWLEFVALSLVVGAAGYVIAKTGGQVAARTGLSEGLVGGLFTAVSTSLPELVTSVAAVRRGALTLAVGGIIGGNSFDVLFVAFSDVGYQEGSIYHAMTEQQVFIIALTLLLTGILLMGLLRRERRGAFGIGFESFLALVLYFGAFGLLFV,failed
3,MDLVSLVERIGEAPTAALFGLITGITFGVAAQRSRFCLRAATVEFARGRMEDKVAVWLLTFSTALVWVQAAQLMGLMNGADARMMAVPGSWSGAIIGGLMFGAGMVLARGCSGRLLVLAATGNLRSVVSGLIFAVVAQMSLSGLLSPLRDKLAALWITEGGRNMNLLSTFGLPEYGGLVLGLVCAVLALVLARRHRIGAARLVFASGVGFAVALGWVLTYALSQVAFEPVQIESATFTGPSAHTLMFFLDRNAVLEFDVGLVPGVFIGAMIAAALAGEMKIQAFDGPVTMRKAMIGAALMGFGGMLAGGCAIGAGVTGGSIFVGTAWAALFFMWVGAMATDFLIDQRAASPRAA,failed
4,MDLYLDPSILIILIVFGFVAAFIDSVVGGGGLIALPALLFTGLNPASAVATNKLASTMGSATSNIVFYRSGNLNLKSAFKLVPLTFIGSIIGAWTVHLMNPEVLKPLMLIMLGAVAIYTIFKKDWGSISTHKKLSGRHVIIFTFFVFAIGFYDGFLGPGTGSFLMFSLLFIGYDFLKAAGNAKLLNLGSNVGALLMFMYVGQVNYAYGFIMGIAQIAGGIVGSKFAIKKGSGYVRALFITVTCLLLAKNLYDYIQ,failed
5,MDMQHRIRQLFQASIETKQQALEVLPPYIEQASLVMVNALLNEGKILSCGNGGSAGDAQHFSSELLNRFERERPSLPAVALTTDSSTITSIANDYSYNEVFSKQIRALGQPGDVLLAISTSGNSANVIQAIQAAHDREMLVVALTGRDGGGMASLLLPEDVEIRVPSKITARIQEVHLLAIHCLCDLIDRQLFGSEE,not failed
6,MDNFVVTFARGFGTGGKAIASQLAKELGIHCYENRILTLASQLSGLDENVFQEVNEKLREEGGFTSFLRGLPRAKGYISRNEKFKSDDRLFEYQSQIINELADKESCVIVGKCADYVLKNRPNVVSIYIEAPRAFCVERTITNMGVTPEVANATIERTDKFRADYYKYYTHGNYWTNPVNYDLTLNSERVGVENCVKTIEQYLIIKGFIKADMIKPAGELI,failed
7,MDNIPDGDWYCYECVNKATNERKCIVCGGHRPSPVGKMIYCDLCPRAYHADCYIPPLLKVPRGKWYCHGCISRAPPPKKRSAGGTSGSSSKSRRDRDRESGGSAKRRSDNSKTPAMEHMQQQQMPLAGGDSHHHHHQQPPSLNSSHDESM,failed
8,MDNLTHYLATTLRTLRHQRGWSLSRLAEISGVSKAMLGQIERNESSPTVATLWKIATGLNVPFSVFISPPQAEFPPTFDPQQQAMVITPLFPWDPELCFDYFSLLLAPGTVSESTPHKAGVIEHVVVIQGRLDMCTGGVWQTIDAGKGLRFAGDTAHTYRNSSDQTVHFHSLIHYPRD,failed
9,MDNQHNQNHIMGTLQWFIFLLANSIALPIVVGGLFHLTTEEIFYLMQRTFFVVGISSFLQGWLGHRLPIADGPAGSWVGVFTVLAYATAGQDQLHSTLQILELGMIISGIILIGLGVTGFIGRILFLFTPLVTGTFLLLLCLQLSGVFLKGMLGITATISQIDGFTAMIAFSIFLFVIILSNFGKGFVKSYAVLIGLISGWIIFLIAGKVTIPSQVTHFVQLPHIFAWGLPKWNTGMAVSSFVMVCILVSNTVAAIIAINQATIHKATIEQKQLKDGTWVGGISHIISSVFSTVGVVPLPATAGFIRLTKQKYIRSFLMACALLVVMSLFPSIIRYLASLPSAVASAVLMASFVQLIGIGFNNIKQVPMSERNVTILGVAVLFGSGVMFLPSGALQSLPSVMQYIFGNGLFVGTVVSILLEQIWRVGK,not failed
10,MDPEETSVYLDYYYATSPNSDIRETHSHVPYTSVFLPVFYTAVFLTGVLGNLVLMGALHFKPGSRRLIDIFIINLAASDFIFLVTLPLWVDKEASLGLWRTGSFLCKGSSYMISVNMHCSVLLLTCMSVDRYLAIVWPVVSRKFRRTDCAYVVCASIWFISCLLGLPTLLSRELTLIDDKPYCAEKKATPIKLIWSLVALIFTFFVPLLSIVTCYCCIARKLCAHYQQSGKHNKKLKKSIKIIFIVVAAFLVSWLPFNTFKFLAIVSGLRQEHYLPSAILQLGMEVSGPLAFANSCVNPFIYYIFDSYIRRAIVHCLCPCLKNYDFGSSTETSDSHLTKALSTFIHAEDFARRRKRSVSL,failed
11,MDPEIQPPPGKAEIKAKIWKLKTAPKIKHFLWKLLSGALATGDNLKRRHIRNHPQCHRCCQEDETSQHLFFDCFYAQQVWRASGIPHQELRTTGITMETKMELLLSSCLANRQPQLFNLAIWILWRLWKSRNQLVFQQKSISWQNTLQRARNDVQEWEDTNTYVQSLNQQVHSSRHQQPTMARTKWQRPPSTWIKYNYDGAFNHQTRNAKAGWLMRDENGVYMGSGQAIGSTTSDSLESEFQALIIAMQHAWSQGYRKVIFEGDSKQVEELMNNEKLNFGRFNWIREGRFWQKRFEEAVFKWVPRTNNQPADILAKHHLQPNQSFKFHYYVPAFITSTLYYDH,failed
12,MDPEVFAQARLRMDQLTKPPRALGYLEEVALRLAALQGRVKPELGRGAVVVAAADHGVVAEGVSAYPQEVTRQMVLNFLRGGAAINQFALAADCAVYVLDVGVVGELPDHPGLLKRKVRPGTANLAQGPAMTPEEAERALLAGREAARRAIAEGATLLAAGDMGIGNTTAAAALTAALLGLPPEAVVGRGTGVGEEGLRRKRQAVARALARLHPGMGPLEVAAEVGGLELVAIAGIYLEGYEAGLPLVLDGFPVTAGALLAWKMAPGLRDHLFAGHLSREPGHRHQLEALGLRPLLDLDLALGEGTGAVLAMPLLRAAARILHMATFQEAGVSRG,not failed
13,MDPLALLRKAGLEAEGPALPLHGGDISRVWRVGRFVVKTAQDPPPGLFRAEARGLQALAERGVRVPQVHWVGEEGLVLAYLEPGPEDWEGLARTLAALHRRREGSYLAEPGFLGTFPLPGREGGEWTAFFYERCVLPLLEATWDRLQGLGPKVEALYRRPLPAEGPAPLHGDLWHGNVYFAREGPALLDPSFFVGERGVDLAMMRLFGGFPRRFWEVYGELYPVPEEVERALPRYQVYYLLAHVHFFGQGYLGALWRAISAS,failed
14,MDPLEDVLTLLKTRSHLSASLVAGGRWAVRFDAPRVVKFNAVRRGTCQLEVDGIDEPIDLAEGDCYLLTRPRSFTLRSDPETAPVDGGAVFARAEDGIARAGQGDDVFLIGGGFSFGTRAQELLLDRLPPIVHVPADTPHAETVQWALTAIDQELTHRPMASTLIAEHLAVIMLVHVLRLHLERAPHAVSGWLAGLADPVVATALTCLHRDPARSWTVADLADTAAVSRSTLAARFKATVGQGPLEYLTRWRIELAARQLREGNATLASIAHSVGYGSESALSVAFKRVLGMPPGDYRKHPTMP,failed
15,MDPSAPALDSAFWITTGAILLLLILSGFFSGSETALTAASRGKLRSQADKGSKGAQKALAITDDNERLIGSVLLGNNLVNILAASLATALFTRAFGESGVALATLVMTLLVLIFAEVLPKTYAITNSEKAAAAVAPIIGVVVMVFSPVVALVRLLVRGVLRLFGVRIDPDSHIMAVREEIAGALYLGHSEGVVEKEDRDRILGALDLAERTVEEIMLHRSNIVMLDADAEPETILEHCLQSPHTRLPVYRGEPENIIGVVHAKDLFRAMYAQVGGSEGHTARLKDFDISRVANAPYFVPETTTLDDQMRAFLRMRSHFALVVDEYGSLRGLITLEDILEEIVGEITDEFDPAAEMPVTRSDDGQFLVDGAMTIRDVNRAMDWSLPDDEANTVAGLVIHEAQMIPTVGQVFAFHGFRFEVTGREGNRITGLKIRPL,failed
16,MDQNTTPAPGLRETKKRETRQLISDHATRLFIERGFEHTTIAEIADAARVAKKTVTNYFPRKEDLALDHQDEFVAALAATVTARGAGETPLTALRHAFLAAVAAQDPVAGFAGQAFTRMIADSPTLTACLRGLHDRREEALTAALAGTTDTPPDDITPRTAAALLGGVHRVLFNRIQELTLAGRATPEIAEVLAREAPRAFDLLTPALAEYGRRP,not failed
17,MDRDLLRQSLNCHGSSLLSLLRSEQQDNPHFRSLLGSAAEPARGPPPQHPLQGRKEKRVDNIEIQKFISKKADLLFALSWKSDAPATSEINEDSEDHYAIMPPLEQFMEIPSMDRRELFFRDIERGDIVIGRISSIREFGFFMVLICLGSGIMRDIAHLEITALCPLRDVPSHSNHGDPLSYYQTGDIIRAGIKDIDRYHEKLAVSLYSSSLPPHLSGIKLGVISSEELPLYYRRSVELNSNSLESYENVMQSSLGFVNPGVVEFLLEKLGIDESNPPSLMRGLQSKNFSEDDFASALRKKQSASWALKCVKIGVDYFKVGRHVDAMNEYNKALEIDKQNVEALVARGALYATKGSLNKAIEDFELALENCPTHRNARKYLCQTLVERGGQLEEEEKFLNAESYYKKALALDETFKDAEDALQKLHKYMQVIPYFLLEI,failed
18,MDREAFVQTLTACRLCPRLVAWREEVVGRKRAFRGEPYWARPVPGFGDPEARILLFGLAPGAHGSNRTGRPFTGDASGAFLYPLLHEAGLSSKPESLPGDDLRLYGVYLTAAVRCAPPKNKPTPEELRACARWTEVELGLLPEVRVYVALGRIALEALLAHFGLRKSAHPFRHGAHYPLPGGRHLLASYHVSRQNTQTGRLTREMFLEVLMEAKRLAGL,not failed
19,MDRHTTEGWRRWAARLGAAAMALLLAACAAPRQQAASVDELPSWNDGPSRTAIVEFVRAVTRSGGPDFVAADERIAVFDNDGTLWSEQPMYFQMLFALDRVKSMAPRHPDWARRQPFKAALQDDHAALAKGGDVALMKIVGATHTDMSTDTFTRSVRYWASTARHPRFDRLYTELTFAPMRELLDYLRAHGFKTYIVSGGETEFMRSWTQQAYGIPPEQVIGSSFVTTYGVRDGEPTLWRHGKLEFNDDGPGKPVAIQRYIGRRPILAFGNSDGDLQMLQWTAAGDGKRFAGLVHHTDAQREWAYDRDSRIGRLDRALDEARRQDWTVVDMKTEWKRVYAFEQP,not failed
